This note sets out measurements from paper PMC314469, “Protein Interaction Networks by Proteome Peptide Scanning” (PLoS Biology, 2004).

What all share (experiment): SPOT array
For assay [1], the target named is T1, Boi1 SH3 (BOI1_YEAST), P38041.
T1 chain: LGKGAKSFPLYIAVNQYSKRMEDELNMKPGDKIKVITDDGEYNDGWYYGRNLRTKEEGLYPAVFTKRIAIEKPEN

The target in assay [2] is T2, Boi2 SH3 (BOI2_YEAST), P39969.
T2 chain: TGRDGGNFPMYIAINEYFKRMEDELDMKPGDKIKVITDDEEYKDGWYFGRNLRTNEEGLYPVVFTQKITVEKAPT

The target of assay [3] is T3, Myo5 SH3 (MYO5_YEAST), Q04439.
T3 chain: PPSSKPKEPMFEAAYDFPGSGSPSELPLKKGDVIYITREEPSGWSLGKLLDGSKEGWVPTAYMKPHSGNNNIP

In assay [4] the target is T4, Rvs167 SH3 (RV167_YEAST), P39743.
T4 chain: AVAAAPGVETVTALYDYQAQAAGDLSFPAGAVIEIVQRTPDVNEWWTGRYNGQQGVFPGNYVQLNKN

For assay [5], the target named is Sho1 SH3 (SHO1_YEAST), P40073.
Assay [6] addresses T5, Yfr024 SH3 (LSB3_YEAST), P43603.
T5 chain: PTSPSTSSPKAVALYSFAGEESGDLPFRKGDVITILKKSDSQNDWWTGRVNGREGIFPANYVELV

Assay [7] addresses T6, Yhr016c SH3 (YSC84_YEAST), P32793.
T6 chain: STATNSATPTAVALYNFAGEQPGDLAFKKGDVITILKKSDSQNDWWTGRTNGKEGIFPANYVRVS

Sho1 SH3 (SHO1_YEAST), P40073, sequence (P40073 295-366): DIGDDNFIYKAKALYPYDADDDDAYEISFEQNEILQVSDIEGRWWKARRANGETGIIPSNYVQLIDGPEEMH

Turning to SNFKKRDPGLPDFQ [YPL083C 302-315], the normalised SPOT signal, Boehringer light units (BLU); mean over the file's lines of this peptide in assay [1] turned out to be 238; in assay [2], 6.1; in assay [3], 161; in assay [4], 89.5; in assay [5], 36.9; in assay [6], 212. For the same molecule, the normalised SPOT signal, Boehringer light units (BLU); mean over the file's lines of this peptide in assay [7] is 49.4.

Turning to SLLAKYQPSLPLVE [YDL179W 224-237], the normalised SPOT signal, Boehringer light units (BLU); mean over the file's lines of this peptide in assay [1] is 44.7; in assay [2], 76.8; in assay [3] it was 162; in assay [4], 68.6; in assay [5], 58.4; in assay [6] it was 57.4. In assay [7], this molecule gave a normalised SPOT signal, Boehringer light units (BLU); mean over the file's lines of this peptide of 46.8.

SKRMKALPKGPAAL [YER164W 1316-1329]: the normalised SPOT signal, Boehringer light units (BLU); mean over the file's lines of this peptide came out at 1730 in assay [1]; 66.1 in assay [2]; 822 in assay [3]; 204 in assay [4]; 6310 in assay [5]; 1540 in assay [6]. This molecule had a normalised SPOT signal, Boehringer light units (BLU); mean over the file's lines of this peptide in assay [7] of 114.

On to SKVNKVAPDHPFIQ [YDR345C 274-287], for which the normalised SPOT signal, Boehringer light units (BLU); mean over the file's lines of this peptide worked out at 122 in assay [1]; 9.5 in assay [2]; 72.1 in assay [3]; 12.9 in assay [4]; 0 in assay [5]; 13.5 in assay [6]. This molecule also registered a normalised SPOT signal, Boehringer light units (BLU); mean over the file's lines of this peptide in assay [7] of 7.1.

As to SLKNRDGPITPSTI [YPR128C 112-125], the normalised SPOT signal, Boehringer light units (BLU); mean over the file's lines of this peptide in assay [1] was 60.2; in assay [2], 67.9; in assay [3], 215; in assay [4], 232; in assay [5], 25.7; in assay [6], 161. Moreover, the normalised SPOT signal, Boehringer light units (BLU); mean over the file's lines of this peptide in assay [7] was determined as 14.1.

For the molecule SKYAKLDPSTPVSL [YNL239W 287-300], the normalised SPOT signal, Boehringer light units (BLU); mean over the file's lines of this peptide in assay [1] turned out to be 101; in assay [2], 39.1; in assay [3] it was 457; in assay [4], 42.2; in assay [5], 32.6; in assay [6] it was 26.4. The molecule also showed a normalised SPOT signal, Boehringer light units (BLU); mean over the file's lines of this peptide in assay [7] of 48.5.

Consider SLTLKTLPRVPTDS [YDL197C 461-474], for which the normalised SPOT signal, Boehringer light units (BLU); mean over the file's lines of this peptide in assay [1] was 75.5; in assay [2], 28.1; in assay [3], 212; in assay [4], 163; in assay [5], 31400; in assay [6], 188. The molecule further displayed a normalised SPOT signal, Boehringer light units (BLU); mean over the file's lines of this peptide in assay [7] of 28.2.

With SLISKRNPSYPYGI [YEL050C 18-31], the normalised SPOT signal, Boehringer light units (BLU); mean over the file's lines of this peptide in assay [1] stood at 274; in assay [2] it was 53.2; in assay [3] it was 483; in assay [4], 45.7; in assay [5] it was 159; in assay [6], 79.2. In assay [7], the normalised SPOT signal, Boehringer light units (BLU); mean over the file's lines of this peptide was determined as 10.1.

As for SLGERFMPMAPEVY [YBR017C 618-631], the normalised SPOT signal, Boehringer light units (BLU); mean over the file's lines of this peptide was found to be 49.7 in assay [1]; 51.3 in assay [2]; 140 in assay [3]; 32.8 in assay [4]; 3.7 in assay [5]; 15.8 in assay [6]. The normalised SPOT signal, Boehringer light units (BLU); mean over the file's lines of this peptide in assay [7] is 7.3.

For the molecule SLIPKIEPAEPTYS [YNL224C 454-467], the normalised SPOT signal, Boehringer light units (BLU); mean over the file's lines of this peptide in assay [1] worked out at 170; in assay [2] it was 25.6; in assay [3], 85.4; in assay [4] it was 41.8; in assay [5], 33.4; in assay [6], 1. For the same molecule, in assay [7], the normalised SPOT signal, Boehringer light units (BLU); mean over the file's lines of this peptide came out at 8.7.

For SMAMRPIPPLPTES [YNL152W 155-168], the normalised SPOT signal, Boehringer light units (BLU); mean over the file's lines of this peptide in assay [1] was found to be 37; in assay [2], 49; in assay [3], 1330; in assay [4], 32500; in assay [5], 242; in assay [6] it was 50600. The same molecule displayed a normalised SPOT signal, Boehringer light units (BLU); mean over the file's lines of this peptide in assay [7] of 46600.

On to SQKKKALPKQPKAS [YDR028C 871-884], for which the normalised SPOT signal, Boehringer light units (BLU); mean over the file's lines of this peptide in assay [1] is 1060; in assay [2] it was 29.5; in assay [3] it was 493; in assay [4], 186; in assay [5] it was 3210; in assay [6], 307. In addition, the normalised SPOT signal, Boehringer light units (BLU); mean over the file's lines of this peptide in assay [7] stood at 61.2.

As to SRSKRSKPLPPQLL [YJL095W 840-853], the normalised SPOT signal, Boehringer light units (BLU); mean over the file's lines of this peptide in assay [1] was 685; in assay [2] it was 10.6; in assay [3], 884; in assay [4] it was 159; in assay [5], 1740; in assay [6], 411. In assay [7], this molecule came in with a normalised SPOT signal, Boehringer light units (BLU); mean over the file's lines of this peptide of 10.4.

For SMDSKRKPSPPSQR [YPL141C 758-771], the normalised SPOT signal, Boehringer light units (BLU); mean over the file's lines of this peptide in assay [1] turned out to be 1110; in assay [2], 110; in assay [3], 510; in assay [4], 371; in assay [5], 89.1; in assay [6], 824. This molecule displayed a normalised SPOT signal, Boehringer light units (BLU); mean over the file's lines of this peptide in assay [7] of 171.
